Data reported in PMC5558127, “Plant Glyoxylate/Succinic Semialdehyde Reductases: Comparative Biochemical Properties, Function during Chilling Stress, and Subcellular Localization” (Frontiers in Plant Science, 2017).

How the values were obtained:
Test in all cases: NADPH oxidation, absorbance microplate reader
MdGLYR2 (MdGLYR2Δ54) = target: T1, MdGLYR2 (MdGLYR2Δ54) (Malus domestica, UniProt A0A1C8M593); format: biochemical; conditions: 50 μM glyoxylate, 50 μM NADPH, NADP+ varied 0-0.5 mM
T1 construct: N-terminal targeting peptide removed (Δ54)

MdGLYR1 = MdGLYR1 (Malus domestica, UniProt A0A1C8M582); format: biochemical; conditions: 50 μM glyoxylate, 50 μM NADPH, NADP+ varied 0-0.5 mM
AtGLYR2 (AtGLYR2Δ58) = target: T2, AtGLYR2 (AtGLYR2Δ58) (Arabidopsis thaliana, UniProt F4I907); format: biochemical; conditions: 50 μM NADPH fixed; pH optimum of the enzyme, MES/HEPES/TABS 50 mM each; room temperature
T2 construct: gene GLYR2
T2 sequence (F4I907 59-358): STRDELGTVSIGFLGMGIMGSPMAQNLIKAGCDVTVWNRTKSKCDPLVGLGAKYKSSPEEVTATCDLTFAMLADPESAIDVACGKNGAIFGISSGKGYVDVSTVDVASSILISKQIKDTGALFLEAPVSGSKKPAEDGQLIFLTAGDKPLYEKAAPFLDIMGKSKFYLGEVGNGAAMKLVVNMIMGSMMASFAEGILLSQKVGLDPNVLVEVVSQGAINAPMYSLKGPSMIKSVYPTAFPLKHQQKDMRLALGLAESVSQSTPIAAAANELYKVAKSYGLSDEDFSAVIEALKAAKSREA
Source text: NADPH oxidation, absorbance microplate reader on AtGLYR2 (AtGLYR2Δ58)

AtGLYR1 = target: T3, AtGLYR1 (Arabidopsis thaliana, UniProt Q9LSV0); format: biochemical; conditions: 50 μM NADPH fixed; pH optimum of the enzyme, MES/HEPES/TABS 50 mM each; room temperature
T3 construct: gene GLYR1
T3 sequence (Q9LSV0 1-289): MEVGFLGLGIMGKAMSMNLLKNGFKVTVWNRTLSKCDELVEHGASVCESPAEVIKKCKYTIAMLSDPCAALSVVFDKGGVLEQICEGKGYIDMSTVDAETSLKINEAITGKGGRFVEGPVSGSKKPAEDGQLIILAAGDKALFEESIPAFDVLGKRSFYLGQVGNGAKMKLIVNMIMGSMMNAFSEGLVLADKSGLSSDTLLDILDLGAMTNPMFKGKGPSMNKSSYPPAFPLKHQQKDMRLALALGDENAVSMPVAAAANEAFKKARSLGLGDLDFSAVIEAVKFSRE
Source text: NADPH oxidation, absorbance microplate reader on AtGLYR1

[1] = substrate: NC(=O)C1=CN([C@@H]2O[C@H](COP(=O)(O)OP(=O)(O)OC[C@H]3O[C@@H](n4cnc5c(N)ncnc54)[C@H](OP(=O)(O)O)[C@@H]3O)[C@@H](O)[C@H]2O)C=CC1; format: biochemical, Malus domestica; conditions: 50 μM glyoxylate fixed; pH optimum of the enzyme, MES/HEPES/TABS 50 mM each; room temperature; varied: cofactor
Source text: (§1) NADPH oxidation, absorbance microplate reader on MdGLYR1

[2] = substrate: O=CCCC(=O)O; format: biochemical, Malus domestica; conditions: 50 μM NADPH fixed; pH optimum of the enzyme, MES/HEPES/TABS 50 mM each; room temperature
Source text: as §1

[3] = substrate: O=CC(=O)O; format: biochemical, Malus domestica; conditions: 50 μM NADPH fixed; pH optimum of the enzyme, MES/HEPES/TABS 50 mM each; room temperature
Source text: as §1

[4] = substrate: NC(=O)C1=CN([C@@H]2O[C@H](COP(=O)(O)OP(=O)(O)OC[C@H]3O[C@@H](n4cnc5c(N)ncnc54)[C@H](OP(=O)(O)O)[C@@H]3O)[C@@H](O)[C@H]2O)C=CC1; format: biochemical, Malus domestica; conditions: 50 μM glyoxylate fixed; pH optimum of the enzyme, MES/HEPES/TABS 50 mM each; room temperature; varied: cofactor; remark: listed apart in the source
Source text: (§2) NADPH oxidation, absorbance microplate reader on MdGLYR2 (MdGLYR2Δ54)

[5] = substrate: O=CCCC(=O)O; format: biochemical, Malus domestica; conditions: 50 μM NADPH fixed; pH optimum of the enzyme, MES/HEPES/TABS 50 mM each; room temperature; remark: listed apart in the source
Source text: as §2

[6] = substrate: O=CC(=O)O; format: biochemical, Malus domestica; conditions: 50 μM NADPH fixed; pH optimum of the enzyme, MES/HEPES/TABS 50 mM each; room temperature; remark: listed apart in the source
Source text: as §2

Molecule: NC(=O)c1ccc[n+]([C@@H]2O[C@H](COP(=O)(O)OP(=O)(O)OC[C@H]3O[C@@H](n4cnc5c(N)ncnc54)[C@H](OP(=O)(O)O)[C@@H]3O)[C@@H](O)[C@H]2O)c1 [NADP+]
- % inhibition at NADP+/NADPH ratio of 5 (MdGLYR2 (MdGLYR2Δ54)): ~ 50%
- % inhibition at NADP+/NADPH ratio of 5 (MdGLYR1): ~ 50%

Molecule: O=CC(=O)O [glyoxylate]
- Km (AtGLYR2 (AtGLYR2Δ58)): 19.3 ± 4 µM
- Km (AtGLYR1): 23.2 ± 3.2 µM

B1: MdGLYR1 (Malus domestica) (protein)
chain: MEVGFLGLGIMGKAMSMNLLRHGFKVTVWNRTLSKSHELVEHGASVAETPAEVVRKCKYTIAMLSDPSAALSVVFGKDGILEQICAGKSYVDMSTVDADTSSKINEAIKERGGYFLEAPVSGSKKPAEDGQLVILAAGEKALYEEVIPAFNVMGKKSFYLGQVGNGAKMKLVVNMIMGSMMNAFSEGLVLAGRSGLEPSVLLDVLDLGGIANPMFRLKGPTMIQGSHSPAFPLKHQQKDMRLALALGDETATSMPVAAAANEAFKKARSMGLGDLDFSAVYETVKTLEEPSRNSQLR
- Km [1]: 3.3 ± 0.5 µM
- Vmax [1]: 39.4 µmol/min/mg
- kcat [1]: 22.3 ± 3.4 s⁻¹
- kcat/Km [1]: 6.8e+06 ± 278000 M⁻¹ s⁻¹
- Km [2]: 1133 ± 273 µM
- Vmax [2]: 8.1 µmol/min/mg
- kcat [2]: 4.6 ± 1.6 s⁻¹
- kcat/Km [2]: 5100 ± 2300 M⁻¹ s⁻¹
- Km [3]: 14.1 ± 2.1 µM
- Vmax [3]: 54.7 µmol/min/mg
- kcat [3]: 30.9 ± 3.8 s⁻¹
- kcat/Km [3]: 2.23e+06 ± 153000 M⁻¹ s⁻¹

B2: MdGLYR2 (MdGLYR2Δ54) (Malus domestica) (protein)
chain: ASSKDELPARVGFLGLGIMGSPMAQNLIKSGCDVTVWNRTKSKCDPLISLGAKYKPSPEEVAASCDVTFAMLADPESAVAVALGKHGAANGMSSGKGYVDVSTVDVATSKLIGGNIKATGASFLEAPVSGSKKPAEDGQLIFLTAGDKSLYETVASLLDIMGKSRFYLGEVGNGAAMKLVVNMIMGSMMASFSEGLLLTEKIGLDPKVLVEVVSQGAISAPMYSMKGPSMIQSVYPTAFPLKHQQKDMRLALGLAESVSQSTPIAAAANELYKVAKSHGLSDEDFSAVIEALKPKLKH
notes: N-terminal targeting peptide removed (Δ54)
- Km [4]: 1.8 ± 0.5 µM
- Vmax [4]: 28.2 µmol/min/mg
- kcat [4]: 15.7 ± 1.5 s⁻¹
- kcat/Km [4]: 1.01e+07 ± 2.28e+06 M⁻¹ s⁻¹
- Km [5]: 6500 ± 327 µM
- Vmax [5]: 18.6 µmol/min/mg
- kcat [5]: 10.3 ± 1.9 s⁻¹
- kcat/Km [5]: 1600 ± 200 M⁻¹ s⁻¹
- Km [6]: 23.9 ± 1.9 µM
- Vmax [6]: 34.3 µmol/min/mg
- kcat [6]: 19.1 ± 2.1 s⁻¹
- kcat/Km [6]: 796000 ± 33000 M⁻¹ s⁻¹
